Results from US20040197306A1 (SCHERING, published 2004).

What was measured:
Assay in all cases: FACS, FLAG-tagged ligand supernatant on Baf/3 cells with chimeric receptor, anti-FLAG M2 detection
[1] = biological target: T1, mouse IL-17RD (DCRS8) extracellular domain fused to transmembrane and intracellular domains of murine GCSFR, … (mouse, UniProt Q8JZL1 17-299; P40223 627-837, limits assumed)
T1 construct: extracellular domain;domain: transmembrane and intracellular domains; Chimeric receptor stably expressed on Baf/3 cells; also called MuIL-17RX-MuGCSFR (X = D)
T1 sequence (looked up): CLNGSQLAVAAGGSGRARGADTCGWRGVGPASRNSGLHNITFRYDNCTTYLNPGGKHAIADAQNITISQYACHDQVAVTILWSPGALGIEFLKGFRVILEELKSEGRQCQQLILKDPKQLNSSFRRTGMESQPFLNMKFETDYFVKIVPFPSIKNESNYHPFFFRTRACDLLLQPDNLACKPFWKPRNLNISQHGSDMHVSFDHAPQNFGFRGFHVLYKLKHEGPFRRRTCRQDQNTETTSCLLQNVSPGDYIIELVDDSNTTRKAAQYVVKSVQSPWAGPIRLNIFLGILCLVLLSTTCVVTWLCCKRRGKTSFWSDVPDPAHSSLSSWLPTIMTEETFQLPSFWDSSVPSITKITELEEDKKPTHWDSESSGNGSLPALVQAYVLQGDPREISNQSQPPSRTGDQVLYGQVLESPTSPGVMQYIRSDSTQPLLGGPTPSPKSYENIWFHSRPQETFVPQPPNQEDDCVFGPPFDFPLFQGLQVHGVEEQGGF
Experimental: (§1) FACS analysis was used to determine specific binding of the various ligands to the various receptors. Baf/3 or Baf/3 mouse IL17RX-mouse GCSFR cells were incubated with ligand containing cell supernatants for one hour on ice. The cells were then washed once in FACS buffer and resuspended in 10 μg/ml ANTI-FLAG® M2 antibody (Sigma, St. Louis, Mo.) for one hour on ice. Cells were washed once in FACS buffer and resuspended in 10 μl/ml anti-mouse IgG-PE (Jackson ImmunoResearch, West Grove, Pa.) for 30 minutes on ice. Cells were washed once in FACS buffer and resuspended in FACS buffer and 1 μl/ml propidium iodide (Roche Applied Science, Indianapolis, Ind.) and analyzed on a FACS Calibur (Becton Dickinson, San Jose, Calif.). The chimeric receptor cell based assay was used to visualize the binding of each of the IL-17 family ligands to the receptors by FACS.

[2] = biological target: T2, mouse IL-17RA extracellular domain fused to transmembrane and intracellular domains of murine GCSFR, on Baf/3 … (mouse, UniProt Q60943 32-322; P40223 627-837, limits assumed)
T2 construct: extracellular domain;domain: transmembrane and intracellular domains; Chimeric receptor stably expressed on Baf/3 cells; also called MuIL-17RX-MuGCSFR (X = A)
Experimental: as §1

[3] = biological target: T3, mouse IL-17RC (DCRS7) extracellular domain fused to transmembrane and intracellular domains of murine GCSFR, … (mouse, UniProt P40223 627-837, limits assumed)
T3 construct: domain: transmembrane and intracellular domains; Chimeric receptor stably expressed on Baf/3 cells; also called MuIL-17RX-MuGCSFR (X = C)
T3 sequence: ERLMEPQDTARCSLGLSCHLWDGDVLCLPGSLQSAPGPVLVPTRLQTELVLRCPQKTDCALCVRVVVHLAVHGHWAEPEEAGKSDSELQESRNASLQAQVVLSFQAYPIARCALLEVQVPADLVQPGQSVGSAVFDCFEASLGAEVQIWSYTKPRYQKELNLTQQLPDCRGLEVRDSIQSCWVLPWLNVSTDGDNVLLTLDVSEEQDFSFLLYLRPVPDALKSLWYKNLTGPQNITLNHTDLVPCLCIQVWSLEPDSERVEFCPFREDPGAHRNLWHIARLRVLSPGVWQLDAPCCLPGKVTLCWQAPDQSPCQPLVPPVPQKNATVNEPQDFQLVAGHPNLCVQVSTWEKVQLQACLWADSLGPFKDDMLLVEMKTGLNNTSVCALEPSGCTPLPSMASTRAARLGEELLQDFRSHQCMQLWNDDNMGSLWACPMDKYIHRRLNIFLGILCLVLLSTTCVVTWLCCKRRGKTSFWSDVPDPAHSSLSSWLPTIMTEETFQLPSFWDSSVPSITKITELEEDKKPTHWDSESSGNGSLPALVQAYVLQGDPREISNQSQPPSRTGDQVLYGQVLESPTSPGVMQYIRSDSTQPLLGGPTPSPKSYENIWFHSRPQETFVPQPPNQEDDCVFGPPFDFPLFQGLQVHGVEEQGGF
Experimental: as §1

Measured: binding result

B1: FLAG-tagged IL-17C (ligand)
chain: HHDPSLRGHPHSHGTPHCYSAEELPLGQAPPHLLARGAKWGQALPVALVSSLEAASHRGRHERPSATTQCPVLRPEEVLEADTHQRSISPWRYRVDTDEDRYPQKLAFAECLCRGCIDARTGRETAALNSVRLLQSLLVLRRRPCSRDGSGLPTPGAFAFHTEFIHVPVGCTCVLPRSV
notes: Used as supernatant of transfected 293T cells; also called IL-71; not shown: FLAG peptide tag at the N-terminus (after the pre-protrypsin leader)
no binding: all assays above
